According to US20150111251A1 (AbbVie / Abbott, published 2015):

Experiments:
[1] = molecular target: T1, Recombinant Human TNF-α/TNFSF1A (human, UniProt P01375 77-233); assay: cell-based or functional assay
[2] = molecular target: T1, Recombinant Human TNF-α/TNFSF1A; assay: SPR (BIACORE), antibody captured, TNFα in solution
Procedure: The BIACORE assay (Biacore, Inc, Piscataway, N.J.) determines the affinity of antibodies with kinetic measurements of on-rate and off-rate constants. Binding of antibodies to a target antigen (for example, a purified recombinant target antigen) is determined by surface plasmon resonance-based measurements with a Biacore® 1000 or 3000 instrument (Biacore® AB, Uppsala, Sweden) using running HBS-EP (10 mM HEPES [pH 7.4], 150 mM NaCl, 3 mM EDTA, and 0.005% surfactant P20) at 25° C. All chemicals are obtained from Biacore® AB (Uppsala, Sweden) or otherwise from a different source as described. For example, approximately 5000 RU of goat anti-mouse IgG, (Fcγ), fragment specific polyclonal antibody (Pierce Biotechnology Inc, Rockford, Ill.) diluted in 10 mM sodium acetate (pH 4.5) is directly immobilized across a CM5 research grade biosensor chip using a standard amine coupling kit according to manufacturer's instructions and procedures at 25 μg/ml. Unreacted moieties on the biosensor surface are blocked with ethanolamine. Modified carboxymethyl dextran surface in flowcell 2 and 4 is used as a reaction surface. Unmodified carboxymethyl dextran without goat anti-mouse IgG in flow cell 1 and 3 is used as the reference surface. For kinetic analysis, rate equations derived from the 1:1 Langmuir binding model are fitted simultaneously to association and dissociation phases of all eight injections (using global fit analysis) with the use of Biaevaluation 4.0.1 software. Purified antibodies are diluted in HEPES-buffered saline for capture across goat anti-mouse IgG specific reaction surfaces. Antibodies to be captured as a ligand (25 μg/ml) are injected over reaction matrices at a flow rate of 5 μl/minute. The association and dissociation rate constants, kₒₙ (M⁻¹ s⁻¹) and koff (s⁻¹), are determined under a continuous flow rate of 25 μl/minute. Rate constants are derived by making kinetic binding measurements at different antigen concentrations ranging from 10-200 nM. The equilibrium dissociation constant (M) of the reaction between antibodies and the target antigen is then calculated from the kinetic rate constants by the following formula: KD=koff/kₒₙ. Binding is recorded as a function of time and kinetic rate constants are calculated. In this assay, on-rates as fast as 10⁶ M⁻¹ s⁻¹ and off-rates as slow as 10⁻⁶ s⁻¹ can be measured.

T1 sequence (P01375 77-233 limits assumed): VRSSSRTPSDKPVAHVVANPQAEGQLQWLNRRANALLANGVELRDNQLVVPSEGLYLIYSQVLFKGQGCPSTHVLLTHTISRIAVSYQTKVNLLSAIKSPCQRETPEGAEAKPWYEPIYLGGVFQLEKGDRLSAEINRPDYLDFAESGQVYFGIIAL

Binder | TNFα Neutralization Assay IC50 nM (L929 cells) [1] | koff [2] | kon [2] | Kd [2]
AB351 (antibody, V domains shown, Full-length humanized antibody made in HEK 293-6E; also called hMAK199VH.1/hMAK199VL.1) VH: EVQLVQSGSELKKPGASVKVSCKASGYTFTNYGMNWVRQAPGQGLEWMGWINTYTGEPTYADDFKGRFVFSLDTSVSTAYLQISSLKAEDTAVYYCARKFLTTVVVTDYAMDYWGQGTTVTVSS VL: DIQMTQSPSSLSASVGDRVTITCRASQDISNYLNWYQQKPGKAPKLLIYYTSRLQSGVPSRFSGSGSGTDFTLTISSLQPEDFATYYCQQGNTLPPTFGQGTKLEIK | 1.06 nM | 0.00068 s⁻¹ | 2e+06 M⁻¹ s⁻¹ | –
AB356 (antibody, V domains shown, Full-length humanized antibody made in HEK 293-6E; also called hMAK199VH.1/hMAK199VL.2b) VH: EVQLVQSGSELKKPGASVKVSCKASGYTFTNYGMNWVRQAPGQGLEWMGWINTYTGEPTYADDFKGRFVFSLDTSVSTAYLQISSLKAEDTAVYYCARKFLTTVVVTDYAMDYWGQGTTVTVSS VL: DIVMTQSPAFLSVTPGEKVTITCRASQDISNYLNWYQQKPDQAPKLLIYYTSRLQSGVPSRFSGSGSGTDYTFTISSLEAEDAATYYCQQGNTLPPTFGQGTKLEIK | 0.87 nM | 0.00089 s⁻¹ | 1.3e+06 M⁻¹ s⁻¹ | 670 pM
AB357 (antibody, V domains shown, Full-length humanized antibody made in HEK 293-6E; also called hMAK199VH.1a/hMAK199VL.1) VH: EIQLVQSGSELKKPGASVKVSCKASGYTFTNYGMNWVRQAPGQGLEWMGWINTYTGEPTYADDFKGRFVFSLDTSVSTAYLQISSLKAEDTAVYFCARKFLTTVVVTDYAMDYWGQGTTVTVSS VL: DIQMTQSPSSLSASVGDRVTITCRASQDISNYLNWYQQKPGKAPKLLIYYTSRLQSGVPSRFSGSGSGTDFTLTISSLQPEDFATYYCQQGNTLPPTFGQGTKLEIK | 1.94 nM | 0.0013 s⁻¹ | 1.9e+06 M⁻¹ s⁻¹ | 670 pM
AB365 (antibody, V domains shown, Full-length humanized antibody made in HEK 293-6E; also called hMAK199VH.1b/hMAK199VL.1b) VH: EVQLVQSGSELKKPGASVKVSCKASGYTFTNYGMNWVRQAPGQGLEWMGWINTYTGEPTYADDFKGRFVFSLDTSVSTAYLQISSLKAEDTAVYFCARKFLTTVVVTDYAMDYWGQGTTVTVSS VL: DIQMTQSPSSLSASVGDRVTITCRASQDISNYLNWYQQKPGKAPKLLIYYTSRLQSGVPSRFSGSGSGTDYTLTISSLQPEDFATYYCQQGNTLPPTFGQGTKLEIK | 1.52 nM | 0.001 s⁻¹ | 1.1e+06 M⁻¹ s⁻¹ | 910 pM
AB363 (antibody, V domains shown, Full-length humanized antibody made in HEK 293-6E; also called hMAK199VH.1b/hMAK199VL.1) VH: EVQLVQSGSELKKPGASVKVSCKASGYTFTNYGMNWVRQAPGQGLEWMGWINTYTGEPTYADDFKGRFVFSLDTSVSTAYLQISSLKAEDTAVYFCARKFLTTVVVTDYAMDYWGQGTTVTVSS VL: DIQMTQSPSSLSASVGDRVTITCRASQDISNYLNWYQQKPGKAPKLLIYYTSRLQSGVPSRFSGSGSGTDFTLTISSLQPEDFATYYCQQGNTLPPTFGQGTKLEIK | 0.32 nM | 0.0012 s⁻¹ | 1.4e+06 M⁻¹ s⁻¹ | 860 pM
AB377 (antibody, V domains shown, Full-length humanized antibody made in HEK 293-6E; also called hMAK199VH.2a/hMAK199VL.1b) VH: EIQLVQSGAEVKKPGASVKVSCKASGYTFTNYGMNWVRQAPGQGLEWMGWINTYTGEPTYADDFKGRFTFTLDTSTSTAYMELSSLRSEDTAVYFCARKFLTTVVVTDYAMDYWGQGTTVTVSS VL: DIQMTQSPSSLSASVGDRVTITCRASQDISNYLNWYQQKPGKAPKLLIYYTSRLQSGVPSRFSGSGSGTDYTLTISSLQPEDFATYYCQQGNTLPPTFGQGTKLEIK | > 20 nM | 0.0015 s⁻¹ | 1.1e+06 M⁻¹ s⁻¹ | 1400 pM
AB367 (antibody, V domains shown, Full-length humanized antibody made in HEK 293-6E; also called hMAK199VH.1b/hMAK199VL.2a) VH: EVQLVQSGSELKKPGASVKVSCKASGYTFTNYGMNWVRQAPGQGLEWMGWINTYTGEPTYADDFKGRFVFSLDTSVSTAYLQISSLKAEDTAVYFCARKFLTTVVVTDYAMDYWGQGTTVTVSS VL: DIVMTQSPAFLSVTPGEKVTITCRASQDISNYLNWYQQKPDQTVKLLIYYTSRLQSGVPSRFSGSGSGTDYTFTISSLEAEDAATYFCQQGNTLPPTFGQGTKLEIK | 0.53 nM | 0.001 s⁻¹ | 1e+06 M⁻¹ s⁻¹ | 1000 pM
AB368 (antibody, V domains shown, Full-length humanized antibody made in HEK 293-6E; also called hMAK199VH.1b/hMAK199VL.2b) VH: EVQLVQSGSELKKPGASVKVSCKASGYTFTNYGMNWVRQAPGQGLEWMGWINTYTGEPTYADDFKGRFVFSLDTSVSTAYLQISSLKAEDTAVYFCARKFLTTVVVTDYAMDYWGQGTTVTVSS VL: DIVMTQSPAFLSVTPGEKVTITCRASQDISNYLNWYQQKPDQAPKLLIYYTSRLQSGVPSRFSGSGSGTDYTFTISSLEAEDAATYYCQQGNTLPPTFGQGTKLEIK | 1.09 nM | 0.0011 s⁻¹ | 1.1e+06 M⁻¹ s⁻¹ | 1000 pM
AB358 (antibody, V domains shown, Full-length humanized antibody made in HEK 293-6E; also called hMAK199VH.1a/hMAK199VL.1a) VH: EIQLVQSGSELKKPGASVKVSCKASGYTFTNYGMNWVRQAPGQGLEWMGWINTYTGEPTYADDFKGRFVFSLDTSVSTAYLQISSLKAEDTAVYFCARKFLTTVVVTDYAMDYWGQGTTVTVSS VL: DIQMTQSPSSLSASVGDRVTITCRASQDISNYLNWYQQKPGKTVKLLIYYTSRLQSGVPSRFSGSGSGTDYTLTISSLQPEDFATYFCQQGNTLPPTFGQGTKLEIK | 0.21 nM | 0.00097 s⁻¹ | 1.4e+06 M⁻¹ s⁻¹ | 700 pM
AB355 (antibody, V domains shown, Full-length humanized antibody made in HEK 293-6E; also called hMAK199VH.1/hMAK199VL.2a) VH: EVQLVQSGSELKKPGASVKVSCKASGYTFTNYGMNWVRQAPGQGLEWMGWINTYTGEPTYADDFKGRFVFSLDTSVSTAYLQISSLKAEDTAVYYCARKFLTTVVVTDYAMDYWGQGTTVTVSS VL: DIVMTQSPAFLSVTPGEKVTITCRASQDISNYLNWYQQKPDQTVKLLIYYTSRLQSGVPSRFSGSGSGTDYTFTISSLEAEDAATYFCQQGNTLPPTFGQGTKLEIK | 1.9 nM | 0.0014 s⁻¹ | 2.4e+06 M⁻¹ s⁻¹ | 590 pM
AB361 (antibody, V domains shown, Full-length humanized antibody made in HEK 293-6E; also called hMAK199VH.1a/hMAK199VL.2a) VH: EIQLVQSGSELKKPGASVKVSCKASGYTFTNYGMNWVRQAPGQGLEWMGWINTYTGEPTYADDFKGRFVFSLDTSVSTAYLQISSLKAEDTAVYFCARKFLTTVVVTDYAMDYWGQGTTVTVSS VL: DIVMTQSPAFLSVTPGEKVTITCRASQDISNYLNWYQQKPDQTVKLLIYYTSRLQSGVPSRFSGSGSGTDYTFTISSLEAEDAATYFCQQGNTLPPTFGQGTKLEIK | 0.82 nM | 0.00098 s⁻¹ | 1.2e+06 M⁻¹ s⁻¹ | 790 pM
AB364 (antibody, V domains shown, Full-length humanized antibody made in HEK 293-6E; also called hMAK199VH.1b/hMAK199VL.1a) VH: EVQLVQSGSELKKPGASVKVSCKASGYTFTNYGMNWVRQAPGQGLEWMGWINTYTGEPTYADDFKGRFVFSLDTSVSTAYLQISSLKAEDTAVYFCARKFLTTVVVTDYAMDYWGQGTTVTVSS VL: DIQMTQSPSSLSASVGDRVTITCRASQDISNYLNWYQQKPGKTVKLLIYYTSRLQSGVPSRFSGSGSGTDYTLTISSLQPEDFATYFCQQGNTLPPTFGQGTKLEIK | 0.35 nM | 0.0011 s⁻¹ | 1.2e+06 M⁻¹ s⁻¹ | 890 pM
AB362 (antibody, V domains shown, Full-length humanized antibody made in HEK 293-6E; also called hMAK199VH.1a/hMAK199VL.2b) VH: EIQLVQSGSELKKPGASVKVSCKASGYTFTNYGMNWVRQAPGQGLEWMGWINTYTGEPTYADDFKGRFVFSLDTSVSTAYLQISSLKAEDTAVYFCARKFLTTVVVTDYAMDYWGQGTTVTVSS VL: DIVMTQSPAFLSVTPGEKVTITCRASQDISNYLNWYQQKPDQAPKLLIYYTSRLQSGVPSRFSGSGSGTDYTFTISSLEAEDAATYYCQQGNTLPPTFGQGTKLEIK | 2.11 nM | 0.0011 s⁻¹ | 1.3e+06 M⁻¹ s⁻¹ | 830 pM
AB352 (antibody, V domains shown, Full-length humanized antibody made in HEK 293-6E; also called hMAK199VH.1/hMAK199VL.1a) VH: EVQLVQSGSELKKPGASVKVSCKASGYTFTNYGMNWVRQAPGQGLEWMGWINTYTGEPTYADDFKGRFVFSLDTSVSTAYLQISSLKAEDTAVYYCARKFLTTVVVTDYAMDYWGQGTTVTVSS VL: DIQMTQSPSSLSASVGDRVTITCRASQDISNYLNWYQQKPGKTVKLLIYYTSRLQSGVPSRFSGSGSGTDYTLTISSLQPEDFATYFCQQGNTLPPTFGQGTKLEIK | 0.35 nM | 0.00094 s⁻¹ | 2.1e+06 M⁻¹ s⁻¹ | 450 pM
AB359 (antibody, V domains shown, Full-length humanized antibody made in HEK 293-6E; also called hMAK199VH.1a/hMAK199VL.1b) VH: EIQLVQSGSELKKPGASVKVSCKASGYTFTNYGMNWVRQAPGQGLEWMGWINTYTGEPTYADDFKGRFVFSLDTSVSTAYLQISSLKAEDTAVYFCARKFLTTVVVTDYAMDYWGQGTTVTVSS VL: DIQMTQSPSSLSASVGDRVTITCRASQDISNYLNWYQQKPGKAPKLLIYYTSRLQSGVPSRFSGSGSGTDYTLTISSLQPEDFATYYCQQGNTLPPTFGQGTKLEIK | 3.78 nM | 0.00093 s⁻¹ | 1.3e+06 M⁻¹ s⁻¹ | 730 pM
